Earlier results, collected in paper PMC7106946.

Biological target: Asp46 (UniProt position 303, VILFMDRNLEQ)
Experiment: NMR

In the case of “Hedgehog protein autoprocessing domain (HhC) Hint domain, wild type at position 46 (Drosophila melanogaster)”, the pKa is given as 5.8.
